Measurements reported in publication PMC8876964 (Pharmaceuticals, 2022).
Read-outs that look alike come from different tables or passages of the source.

Legend:
[1] = test system: DX3puroβ6 tumor; conditions: mouse, in vivo; cited from earlier work
[2] = Biodistribution in normal CD-1 mice; assay type: in vivo; conditions: mouse, iv, total radioactivity, 0.37 MBq i.v., n = 4–5, mean ± SD
Method: The comparison of non-albumin binding and albumin binding peptides were evaluated in CD-1 mice at 1, 4, 24, and 48 h. ^177Lu-labeled peptides were prepared at the specific activity of 10 MBq/nmol. Mice (n = 4–5) were intravenously injected with 0.37 MBq (10 µCi) of respective radioligands diluted in 100 μL saline and sacrificed at specified time points. Selected organs were collected, weighed, and counted for activity. The results were reported as the percentage of the injected radioactivity per gram of tissue mass (% ID/g) and the radioactivity was calibrated using a known standard.

[3] = test system: BxPC-3 tumors; experiment: Therapy studies in BxPC-3 tumor-bearing mice; assay type: in vivo, athymic nude mice
Method: Therapy studies were conducted in athymic nude mice bearing BxPC-3 tumors when the tumor volume reached about 100 mm^3. […] Tumor volumes and body weights were monitored three times a week. Individual tumor size was calculated using the formula (length × width × width)/2. The mice were euthanized when the tumor reached 1500 mm^3, ulceration of >4 mm was present, or significant stress due to weight loss. […] The doses were administered via tail vein and tumor size and mouse weights were recorded three times a week. Tumor volumes were plotted versus time to determine tumor growth inhibition.

[4] = test system: serum albumin; conditions: cited from earlier work
[5] = PET/CT imaging of BxPC-3 tumor-bearing mice; assay type: in vivo; conditions: athymic nude, mouse, iv, 3.7 MBq, total radioactivity
Method: For blocking study, excess of unlabeled peptides was administered 1–2 min before radiotracer injection. The PET scans were acquired for 20 min on an Inveon small animal PET/CT scanner (Siemens Medical Solutions, Malvern, PA, USA). Static images were reconstructed with the maximum a posteriori (MAP) reconstruction algorithm and corrected for decay. Image analysis was performed using the Inveon Research Workstation image display software (Siemens). Regions of interest (ROI) were selected based on co-registered anatomical CT images, and the average or maximum standard uptake value (SUV) was calculated as the mean or maximum regional radioactivity concentration (nCi/cc) x animal weight (g)/decay-corrected amount of injected dose (nCi).

[6] = Biodistribution in mice bearing BxPC-3 tumor xenografts; assay type: in vivo; conditions: athymic nude, mouse, iv, total radioactivity, BxPC-3 tumor mice, 0.37 MBq i.v.; for tissue uptake at 1 h: 1 h p.i.; for tissue uptake at 48 h: 48 h p.i.
Method: Animals were supplied from Charles River Laboratories (Wilmington, MA, USA), and were handled in compliance with the Guidelines for Care and Use of Research Animals established by the Division of Comparative Medicine and the Animal Studies Committee of Washington University School of Medicine. Biodistribution studies were conducted in athymic nude mice bearing subcutaneous BxPC-3 tumors. Tumors were implanted on the right flank with 5 × 10^6 cells about 4 weeks before the performance of the experiments. Biodistribution studies were performed when the tumors reached approximately 5–7 mm in diameter. […] Tissues of interest (blood, lung, liver, spleen, kidney, muscle, heart, bone, and tumor) were collected and weighed, and the radioactivity was measured using a gamma counter. The results were expressed as the percentage of injected dose per gram of tissue (%ID/g).

[7] = blood, n = 4–5, mean ± SD, read-out: blood uptake
[8] = n = 4–5, mean ± SD, read-out: tumor uptake

## NAVPNLRGDLQVLAQKVART [A20FMDV2]
[1]
  tumor uptake: 0.66 ± 0.09 % ID/g

## CC(C)C[C@H](NC(=O)[C@H](CC(=O)O)NC(=O)CNC(=O)[C@H](CCCNC(=N)N)NC(=O)[C@H](CC(C)C)NC(=O)[C@H](CC(N)=O)NC(=O)[C@@H]1CCCN1C(=O)[C@@H](NC(=O)[C@H](C)NC(=O)[C@H](CC(N)=O)NC(=O)CCOCCOCCOCCOCCOCCOCCOCCOCCOCCOCCOCCOCCOCCOCCOCCOCCOCCOCCOCCOCCOCCOCCOCCOCCOCCOCCOCCOCCNC(=O)CN1CCN(CC(=O)O)CCN(CC(=O)O)CCN(CC(=O)O)CC1)C(C)C)C(=O)N[C@@H](CCC(N)=O)C(=O)N[C@H](C(=O)N[C@@H](CC(C)C)C(=O)N[C@@H](C)C(=O)N[C@@H](CCC(N)=O)C(=O)N[C@@H](CCCCN)C(=O)N[C@H](C(=O)N[C@@H](C)C(=O)N[C@@H](CCCNC(=N)N)C(=O)N[C@H](C(=O)NCCOCCOCCOCCOCCOCCOCCOCCOCCOCCOCCOCCOCCOCCOCCOCCOCCOCCOCCOCCOCCOCCOCCOCCOCCOCCOCCOCCOCCC(N)=O)[C@@H](C)O)C(C)C)C(C)C [metal not drawn]
[2]; blood
  tissue uptake at 1 h: 0.11 ± 0.04 %ID/g
[3]; 27.8 MBq, n = 8, during the course of the study
  body weight change: no significant weight loss
[3]; 27.8 MBq, n = 8, until day 23 (p < 0.001 for the IBA peptide)
  tumor inhibition in comparison to control group: did not show significant tumor growth inhibition

## O=C(O)CCCc1ccc(I)cc1 [4-(p-iodophenyl)butyric acid]
[4]
  non-covalent binding with serum albumin: micromolar range

## Cc1cc(-c2ccc(/N=N/c3ccc4c(S(=O)(=O)O)cc(S(=O)(=O)O)c(N)c4c3O)c(C)c2)ccc1/N=N/c1ccc2c(S(=O)(=O)O)cc(S(=O)(=O)O)c(N)c2c1O [Evans Blue]
[4]
  IC50 of reversible binding to serum albumin: micromolar range

## CC(C)C[C@H](NC(=O)[C@H](CC(=O)O)NC(=O)CNC(=O)[C@H](CCCNC(=N)N)NC(=O)[C@H](CC(C)C)NC(=O)[C@H](CC(N)=O)NC(=O)[C@@H]1CCCN1C(=O)[C@@H](NC(=O)[C@H](C)NC(=O)[C@H](CC(N)=O)NC(=O)CCOCCOCCOCCOCCOCCOCCOCCOCCOCCOCCOCCOCCOCCOCCOCCOCCOCCOCCOCCOCCOCCOCCOCCOCCOCCOCCOCCOCCNC(=O)CN1CCN(CC(=O)O)CCN(CC(=O)O)CCN(CC(=O)O)CC1)C(C)C)C(=O)N[C@@H](CCC(N)=O)C(=O)N[C@H](C(=O)N[C@@H](CC(C)C)C(=O)N[C@@H](C)C(=O)N[C@@H](CCC(N)=O)C(=O)N[C@@H](CCCCN)C(=O)N[C@H](C(=O)N[C@@H](C)C(=O)N[C@@H](CCCNC(=N)N)C(=O)N[C@H](C(=O)NCCOCCOCCOCCOCCOCCOCCOCCOCCOCCOCCOCCOCCOCCOCCOCCOCCOCCOCCOCCOCCOCCOCCOCCOCCOCCOCCOCCOCCC(N)=O)[C@@H](C)O)C(C)C)C(C)C [[^68Ga]Ga-DOTA-(PEG28)2-A20FMDV2, metal not drawn]
[5]; mice receiving blocking agent (excess unlabeled peptide 1–2 min before), 1 h after 3.7 MBq i.v., n = 3, read-out: tumor SUVmax
  SUV at 1 h: 1.71 ± 0.04 SUV
[5]; mice receiving blocking agent (excess unlabeled peptide 1–2 min before), 1 h after 3.7 MBq i.v., n = 3, read-out: tumor SUVmean
  SUV at 1 h: 1.22 ± 0.12 SUV
[5]; non-block mice, 1 h after i.v. injection of 3.7 MBq, n = 3, read-out: tumor SUVmax
  SUV at 1 h: 3.85 ± 1.06 SUV
[5]; non-block mice, 1 h after i.v. injection of 3.7 MBq, n = 3, read-out: tumor SUVmean
  SUV at 1 h: 2.77 ± 0.38 SUV

## CC(C)C[C@H](NC(=O)[C@H](CC(=O)O)NC(=O)CNC(=O)[C@H](CCCNC(=N)N)NC(=O)[C@H](CC(C)C)NC(=O)[C@H](CC(N)=O)NC(=O)[C@@H]1CCCN1C(=O)[C@@H](NC(=O)[C@H](C)NC(=O)[C@H](CC(N)=O)NC(=O)CCOCCOCCOCCOCCOCCOCCOCCOCCOCCOCCOCCOCCOCCOCCOCCOCCOCCOCCOCCOCCOCCOCCOCCOCCOCCOCCOCCOCCNC(=O)CCSC1CC(=O)N(CCC(=O)NCCNC(=O)[C@H](CCCCNC(=O)CN2CCN(CC(=O)O)CCN(CC(=O)O)CCN(CC(=O)O)CC2)NC(=O)c2ccc(-c3ccc(N=Nc4ccc5c(S(=O)(=O)O)cc(S(=O)(=O)O)c(N)c5c4O)cc3)cc2)C1=O)C(C)C)C(=O)N[C@@H](CCC(N)=O)C(=O)N[C@H](C(=O)N[C@@H](CC(C)C)C(=O)N[C@@H](C)C(=O)N[C@@H](CCC(N)=O)C(=O)N[C@@H](CCCCN)C(=O)N[C@H](C(=O)N[C@@H](C)C(=O)N[C@@H](CCCNC(=N)N)C(=O)N[C@H](C(=O)NCCOCCOCCOCCOCCOCCOCCOCCOCCOCCOCCOCCOCCOCCOCCOCCOCCOCCOCCOCCOCCOCCOCCOCCOCCOCCOCCOCCOCCC(N)=O)[C@@H](C)O)C(C)C)C(C)C (stereo partly shown) [[^177Lu]Lu-EB-DOTA-(PEG28)2-A20FMDV2, metal not drawn]
[2]; blood
  tissue uptake at 1 h: 5.36 ± 1.06 %ID/g
[2]; blood, 48 h p.i., read-out: blood uptake
  tissue uptake at 48 h: 0.41 ± 0.03 %ID/g
[2]; kidney, 48 h, read-out: kidney uptake
  tissue uptake at 48 h: 44.3 ± 5.13 %ID/g
[6]; [7]
  tissue uptake at 1 h: 4.8 ± 0.69 %ID/g
  tissue uptake at 48 h: 0.28 ± 0.01 %ID/g
[6]; blood, 4 h, n = 4–5, mean ± SD
  tissue uptake at 4 h: 1.23 ± 0.3 %ID/g
[6]; [8]
  tissue uptake at 1 h: 5.2 ± 1.02 %ID/g
  tissue uptake at 48 h: 4.29 ± 0.78 %ID/g
[6]; lung, liver, spleen, muscle, heart, bone, all time points (1, 4, 24, 48 h), read-out: uptake in normal organs such as lung, liver, spleen, muscle, heart, and bone
  tissue uptake: < 4 %ID/g
[3]; single dose of 37 MBq, BxPC-3 tumor-bearing mice, n = 8, p < 0.001
  tumor volumes in comparison to the control group: significantly reduced
[3]; single dose of 37 MBq, two weeks after radiotracer injection
  mortality: death of all mice
other
  % intact in human serum: > 90%
